Experimental data: article doi:10.1101/2021.03.23.436655

Target: fluorescent tagged eIF4E-3 (Drosophila melanogaster)
Assay: FRET or BRET

FRET efficiency: 25%
B1: fluorescent tagged Me31B (FRET partner of eIF4E-3) (natural protein)
chain: MMTEKLNSGHTNLTSKGIINDLQIAGNTSDDMGWKSKLKLPPKDNRFKTTDVTDTRGNEFEEFCLKRELLMGIFEKGWERPSPIQEAAIPIALSGKDVLARAKNGTGKTGAYCIPVLEQIDPTKDYIQALVMVPTRELALQTSQICIELAKHLDIRVMVTTGGTILKDDILRIYQKVQLIIATPGRILDLMDKKVADMSHCRILVLDEADKLLSLDFQGMLDHVILKLPKDPQILLFSATFPLTVKNFMEKHLREPYEINLMEELTLKGVTQYYAFVQERQKVHCLNTLFSKLQINQSIIFCNSTQRVELLAKKITELGYCCYYIHAKMAQAHRNRVFHDFRQGLCRNLVCSDLFTRGIDVQAVNVVINFDFPRMAETYLHRIGRSGRFGHLGIAINLITYEDRFDLHRIEKELGTEIKPIPKVIDPALYVANVGASVGDTCNNSDLNNSANEEGNVSK
